From paper PMC11696677 (Communications Biology, 2025)
Read-outs that look alike come from different tables or passages of the source.

T1: WT Kapβ2 (human, UniProt Q92973-2 1-890)
T1 sequence (looked up): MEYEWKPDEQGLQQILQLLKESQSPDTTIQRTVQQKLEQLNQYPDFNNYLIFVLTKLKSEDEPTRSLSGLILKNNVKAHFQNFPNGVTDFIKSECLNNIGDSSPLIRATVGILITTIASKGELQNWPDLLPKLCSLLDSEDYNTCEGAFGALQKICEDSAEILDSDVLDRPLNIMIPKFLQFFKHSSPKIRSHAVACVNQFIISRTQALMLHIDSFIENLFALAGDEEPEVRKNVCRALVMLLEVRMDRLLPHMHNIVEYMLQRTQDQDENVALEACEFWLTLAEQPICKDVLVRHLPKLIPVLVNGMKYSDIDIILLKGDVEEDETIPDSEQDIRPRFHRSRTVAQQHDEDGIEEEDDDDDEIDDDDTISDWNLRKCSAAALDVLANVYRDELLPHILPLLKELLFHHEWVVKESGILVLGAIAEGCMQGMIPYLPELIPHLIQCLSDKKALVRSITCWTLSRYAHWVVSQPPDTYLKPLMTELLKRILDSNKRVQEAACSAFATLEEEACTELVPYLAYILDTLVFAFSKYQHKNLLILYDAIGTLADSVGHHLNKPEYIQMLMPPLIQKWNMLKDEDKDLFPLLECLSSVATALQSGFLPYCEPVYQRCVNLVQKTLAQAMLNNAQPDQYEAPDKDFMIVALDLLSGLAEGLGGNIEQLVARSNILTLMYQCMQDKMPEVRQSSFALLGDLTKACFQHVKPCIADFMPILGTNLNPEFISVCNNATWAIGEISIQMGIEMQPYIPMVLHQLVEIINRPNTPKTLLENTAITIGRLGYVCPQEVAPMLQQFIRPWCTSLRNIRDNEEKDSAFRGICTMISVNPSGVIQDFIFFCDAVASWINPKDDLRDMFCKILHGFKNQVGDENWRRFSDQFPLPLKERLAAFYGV

T2: TAMRA-(GR)20 (TAMRA label (position not given))
T2 peptide: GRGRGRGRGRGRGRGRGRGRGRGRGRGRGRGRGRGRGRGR

T3: TAMRA-(PR)20 (TAMRA label (position not given))
T3 peptide: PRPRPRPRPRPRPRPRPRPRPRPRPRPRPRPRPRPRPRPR

B1: Kapβ2_(W460A:W730A) (receptor, human, UniProt Q92973-2 1-890, looked up)
chain: MEYEWKPDEQGLQQILQLLKESQSPDTTIQRTVQQKLEQLNQYPDFNNYLIFVLTKLKSEDEPTRSLSGLILKNNVKAHFQNFPNGVTDFIKSECLNNIGDSSPLIRATVGILITTIASKGELQNWPDLLPKLCSLLDSEDYNTCEGAFGALQKICEDSAEILDSDVLDRPLNIMIPKFLQFFKHSSPKIRSHAVACVNQFIISRTQALMLHIDSFIENLFALAGDEEPEVRKNVCRALVMLLEVRMDRLLPHMHNIVEYMLQRTQDQDENVALEACEFWLTLAEQPICKDVLVRHLPKLIPVLVNGMKYSDIDIILLKGDVEEDETIPDSEQDIRPRFHRSRTVAQQHDEDGIEEEDDDDDEIDDDDTISDWNLRKCSAAALDVLANVYRDELLPHILPLLKELLFHHEWVVKESGILVLGAIAEGCMQGMIPYLPELIPHLIQCLSDKKALVRSITCATLSRYAHWVVSQPPDTYLKPLMTELLKRILDSNKRVQEAACSAFATLEEEACTELVPYLAYILDTLVFAFSKYQHKNLLILYDAIGTLADSVGHHLNKPEYIQMLMPPLIQKWNMLKDEDKDLFPLLECLSSVATALQSGFLPYCEPVYQRCVNLVQKTLAQAMLNNAQPDQYEAPDKDFMIVALDLLSGLAEGLGGNIEQLVARSNILTLMYQCMQDKMPEVRQSSFALLGDLTKACFQHVKPCIADFMPILGTNLNPEFISVCNNATAAIGEISIQMGIEMQPYIPMVLHQLVEIINRPNTPKTLLENTAITIGRLGYVCPQEVAPMLQQFIRPWCTSLRNIRDNEEKDSAFRGICTMISVNPSGVIQDFIFFCDAVASWINPKDDLRDMFCKILHGFKNQVGDENWRRFSDQFPLPLKERLAAFYGV

Tests used:
Assay in all cases: fluorescence polarisation
WT Kapβ2 = molecular target: T1, WT Kapβ2
Kapβ2_(W460A:W730A) = molecular target: B1
TAMRA-(GR)20 [1] = molecular target: T2, TAMRA-(GR)20
TAMRA-(PR)20 [2] = molecular target: T3, TAMRA-(PR)20
TAMRA-(GR)20 [3] = molecular target: T2, TAMRA-(GR)20
TAMRA-(PR)20 [4] = molecular target: T3, TAMRA-(PR)20

Binder	Kd (WT Kapβ2)	Kd (Kapβ2_(W460A:W730A))	affinity relative to that of FUS for Kapβ2_(W460A:W730A) (TAMRA-(GR)20 [1])	affinity relative to that of FUS for Kapβ2_(W460A:W730A) (TAMRA-(PR)20 [2])	affinity relative to that of FUS for Kapβ2_(W460A:W730A) (TAMRA-(GR)20 [3])	affinity relative to that of FUS for Kapβ2_(W460A:W730A) (TAMRA-(PR)20 [4])
FUS-GFP (natural protein, UniProt P35637 1-526, looked up) MASNDYTQQATQSYGAYPTQPGQGYSQQSSQPYGQQSYSGYSQSTDTSGYGQSSYSSYGQSQNTGYGTQSTPQGYGSTGGYGSSQSSQSSYGQQSSYPGYGQQPAPSSTSGSYGSSSQSSSYGQPQSGSYSQQPSYGGQQQSYGQQQSYNPPQGYGQQNQYNSSSGGGGGGGGGGNYGQDQSSMSSGGGSGGGYGNQDQSGGGGSGGYGQQDRGGRGRGGSGGGGGGGGGGYNRSSGGYEPRGRGGGRGGRGGMGGSDRGGFNKFGGPRDQGSRHDSEQDNSDNNTIFVQGLGENVTIESVADYFKQIGIIKTNKKTGQPMINLYTDRETGKLKGEATVSFDDPPSAKAAIDWFDGKEFSGNPIKVSFATRRADFNRGGGNGRGGRGRGGPMGRGGYGGGGSGGGGRGGFPSGGGGGGGQQRAGDWKCPNPTCENMNFSWRNECNQCKAPKPDGPGGGPGGSHMGGNYGDDRRGGRGGYDRGGYRGRGGDRGGFRGGRGGGDRGGFGPGKMDSRGEHRQDRRERPY	39.6 ± 17.7 nM	124 ± 58.5 nM	–	–	–	–
B1	–	–	~1.5 times	~1.5 times	~3 times	~3 times
